Values belong to the binder of their own block, whether it stands above or below them. No end group written: not given here. *: point of attachment. 5FAM = O=C1OC2(c3ccc(O)cc3Oc3cc(O)ccc32)c2ccc(C(=O)*)cc21
B7: GST-JARID1A PHD3 (domain or fragment, UniProt P29375 1601-1660, looked up)
chain: EESDDENAVCAAQNCQRPCKDKVDWVQCDGGCDEWFHQVCVGVSPEMAENEDYICINCAK
B8: H3(1-14)K4unmodifiedK14fluo (peptide, UniProt P68431 2-15, looked up)
peptide: ARTKQTARKSTGGK(5FAM)
B9: H3(1-14)K4me3K14fluo (peptide, UniProt P68431 2-15, looked up)
peptide: ARTKQTARKSTGGK
modifications: trimethyl-lysine at position 4; 5-carboxyfluorescein on lysine 14

Legend:
(HQ)5-HaloTag-BHC80 PHD = (HQ)5-HaloTag-BHC80 PHD (UniProt Q96BD5 486-543)
(HQ)5-HaloTag-AIRE PHD1 = biological target: T1, (HQ)5-HaloTag-AIRE PHD1 (UniProt O43918 293-354); assay: HaloTag plate binding assay
T1 sequence (looked up): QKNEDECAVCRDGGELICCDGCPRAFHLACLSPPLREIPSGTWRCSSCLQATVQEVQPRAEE

H3(1-19)K9me3K19fluo = biological target: T2, H3(1-19)K9me3K19fluo (UniProt P68431 2-20, trimethyl-lysine at position 9; fluorescein on lysine 19 (K19fluo)); assay: fluorescence polarisation
T2 chain: ARTKQTARKSTGGKAPRKK

H3(1-14)K4me3K14fluo = biological target: B9; assay: fluorescence polarisation
[1] = biological target: T3, (HQ)5-HaloTag-JARID1A PHD3 (UniProt P29375 1601-1660); assay: pull-down
T3 sequence (looked up): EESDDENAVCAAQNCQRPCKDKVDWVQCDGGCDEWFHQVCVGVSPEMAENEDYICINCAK

[2] = biological target: T3, (HQ)5-HaloTag-JARID1A PHD3; assay: HaloTag plate binding assay
[3] = biological target: B8; assay: fluorescence polarisation
GST-JARID1A PHD3 = biological target: B7; assay: fluorescence polarisation
GST-JARID1A PHD3 D1624A = biological target: T4, GST-JARID1A PHD3 D1624A (UniProt P29375 1601-1660, D1624A); assay: fluorescence polarisation
T4 sequence (looked up): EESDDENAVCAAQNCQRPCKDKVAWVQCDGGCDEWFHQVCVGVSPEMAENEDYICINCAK

GST-JARID1A PHD3 D1629N = biological target: T5, GST-JARID1A PHD3 D1629N (UniProt P29375 1601-1660, D1629N); assay: fluorescence polarisation
T5 sequence (looked up): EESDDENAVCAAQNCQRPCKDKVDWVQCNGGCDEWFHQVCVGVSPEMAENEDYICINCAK

GST-JARID1A PHD3 D1624N = biological target: T6, GST-JARID1A PHD3 D1624N (UniProt P29375 1601-1660, D1624N); assay: fluorescence polarisation
T6 sequence (looked up): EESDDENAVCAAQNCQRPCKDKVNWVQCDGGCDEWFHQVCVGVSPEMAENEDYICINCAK

GST-JARID1A PHD3 D1629A = biological target: T7, GST-JARID1A PHD3 D1629A (UniProt P29375 1601-1660, D1629A); assay: fluorescence polarisation
T7 sequence (looked up): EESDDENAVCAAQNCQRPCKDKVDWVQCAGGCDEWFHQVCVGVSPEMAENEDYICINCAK

[4] = biological target: T8, (HQ)5-HaloTag-JMJD2A double tudor domain (UniProt O75164 895-1011); assay: HaloTag plate binding assay
T8 sequence (looked up): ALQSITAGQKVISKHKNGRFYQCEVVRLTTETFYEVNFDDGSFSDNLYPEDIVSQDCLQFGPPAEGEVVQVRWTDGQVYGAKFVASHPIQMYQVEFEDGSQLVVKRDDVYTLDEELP

B3: GST-RAG2 PHD (domain or fragment, UniProt P21784 414-487, looked up)
chain: GYWITCCPTCDVDINTWVPFYSTELNKPAMIYCSHGDGHWVHAQCMDLEERTLIHLSEGSNKYYCNEHVQIARA
- protein concentration at 90% fraction bound (H3(1-14)K4me3K14fluo): 25 µM

B4: unlabeled (no biotin) histone H3 (1-11) K4me3 peptide (peptide)
chain: ARTKQTARKSTW
modifications: Kme3 (trimethyl-lysine) at position 4
- IC50 [1]: 13.6 ± 4.5 µM
- IC50 [2]: 2.97 ± 0.35 µM

Binder: B7
- protein concentration at 90% fraction bound (H3(1-14)K4me3K14fluo): 1 µM

Binder: B8
- Kd (GST-JARID1A PHD3): 9.35 ± 1.57 µM

Binder: B9
- Kd (GST-JARID1A PHD3 D1624A): 1.15 ± 0.145 µM
- Kd (GST-JARID1A PHD3 D1629N): 3.81 ± 0.551 µM
- Kd (GST-JARID1A PHD3 D1624N): 0.634 ± 0.08 µM
- Kd (GST-JARID1A PHD3 D1629A): 4.05 ± 0.691 µM
- Kd (GST-JARID1A PHD3): 0.294 ± 0.046 µM

B10: biotinylated histone H3 (1-11) peptide trimethylated at lysine 4 (peptide)
peptide: ARTKQTARKSTEW
modifications: Kme3 (trimethyl-lysine) at position 4; E(PEG-biotin) at position 12
- binding result [4]: binds

B11: GST-JMJD2A DTD (domain or fragment, UniProt O75164 895-1011, looked up)
chain: ALQSITAGQKVISKHKNGRFYQCEVVRLTTETFYEVNFDDGSFSDNLYPEDIVSQDCLQFGPPAEGEVVQVRWTDGQVYGAKFVASHPIQMYQVEFEDGSQLVVKRDDVYTLDEELP
- protein concentration at 90% fraction bound (H3(1-14)K4me3K14fluo): 4 µM

Results, then the binder that gave them:

- Kd ((HQ)5-HaloTag-BHC80 PHD): > 15 µM
- binding result ((HQ)5-HaloTag-AIRE PHD1): binds
B1: biotinylated histone H3 (1-11) peptide, unmethylated (peptide)
peptide: ARTKQTARKSTEW
modifications: E(PEG-biotin) at position 12

- protein concentration at 90% fraction bound (H3(1-19)K9me3K19fluo): 18 µM
B2: GST-UHRF1 TTD (domain or fragment)
chain: MWDETELGLYKVNEYVDARDTNMGAWFEAQVVRVTRKAPSRDEPCSSTSRPALEEDVIYHVKYDDYPENGVVQMNSRDVRARARTIIKWQDLEVGQVVMLNYNPDNPKERGFWYDAEISRKRETRTARELYANVVLGDDSLNDCRIIFVDEVFKIERPGE

- protein concentration at 90% fraction bound [3]: 4 µM
B5: GST-AIRE PHD1 (domain or fragment, UniProt O43918 293-354, looked up)
chain: QKNEDECAVCRDGGELICCDGCPRAFHLACLSPPLREIPSGTWRCSSCLQATVQEVQPRAEE

- protein concentration at 90% fraction bound [3]: 60 µM
B6: GST-BHC80 PHD (domain or fragment, UniProt Q96BD5 486-543, looked up)
chain: IHEDFCSVCRKSGQLLMCDTCSRVYHLDCLDPPLKTIPKGMWICPRCQDQMLKKEEAI

Reference: paper PMC3567257 (Biochemistry, 2012)
